{"source": "patent US20230174642A1", "about": "“AFFINITY-MATURATED ANTI-ASIC1a ANTIBODIES” (SHANGHAITECH UNIVERSITY, priority 2019, published 2023)", "binders": {"B1": {"name": "ASC06-03-IgG1 (antibody, V domains shown)", "VH": "QVQLQQSGGGLVQPGGSLRLSCAASGFTFSSYAMSWVRQAPGKGLEWVSAISGSGGSTYYADSVKGRFTISRDNSKNTLYLQMNSLRAEDTAVYYCAKDSFYGRAKGSWGQGTLVTVSS", "VL": "QSALTQPASVSGSPGQSITISCTGTSSDVGAYNYVSWYQQQPGKAPKLMIYGVSNRPSGVSNRFSGSKSGNAASLTISGLQAEDEADYYCSSYTSSSTYVFGTGTKLTVLG", "notes": "Full length IgG1"}, "B2": {"name": "ASC06-01-IgG1 (antibody, V domains shown)", "VH": "B1 VH with F101Y, Y102F, R104Y, A105S, S108D", "VL": "B1 VL", "notes": "Full length IgG1"}, "B3": {"name": "ASC06-02-IgG1 (antibody, V domains shown)", "VH": "B1 VH with Y102F", "VL": "B1 VL", "notes": "Full length IgG1"}, "B4": {"name": "ASC06-04-IgG1 (antibody, V domains shown)", "VH": "B1 VH with S108V", "VL": "B1 VL", "notes": "Full length IgG1"}, "B5": {"name": "ASC06-IgG1 (antibody, V domains shown)", "VH": "B1 VH with R104Y, A105S, S108D", "VL": "B1 VL", "notes": "Tested as full length IgG1; also called WT antibody ASC06-IgG1; parental ASC06-IgG1 antibody"}}, "assay_in_all_cases": "FACS on transiently transfected CHO-K1 cells", "key": {"[1]": {"target": "T1, human ASIC2a-eYFP (hASIC2a-eYFP) on transiently transfected CHO-K1 cells (human, UniProt Q16515 1-512)", "T1 construct": "whole, on cells; not shown: eYFP fusion partner", "T1 sequence (looked up)": "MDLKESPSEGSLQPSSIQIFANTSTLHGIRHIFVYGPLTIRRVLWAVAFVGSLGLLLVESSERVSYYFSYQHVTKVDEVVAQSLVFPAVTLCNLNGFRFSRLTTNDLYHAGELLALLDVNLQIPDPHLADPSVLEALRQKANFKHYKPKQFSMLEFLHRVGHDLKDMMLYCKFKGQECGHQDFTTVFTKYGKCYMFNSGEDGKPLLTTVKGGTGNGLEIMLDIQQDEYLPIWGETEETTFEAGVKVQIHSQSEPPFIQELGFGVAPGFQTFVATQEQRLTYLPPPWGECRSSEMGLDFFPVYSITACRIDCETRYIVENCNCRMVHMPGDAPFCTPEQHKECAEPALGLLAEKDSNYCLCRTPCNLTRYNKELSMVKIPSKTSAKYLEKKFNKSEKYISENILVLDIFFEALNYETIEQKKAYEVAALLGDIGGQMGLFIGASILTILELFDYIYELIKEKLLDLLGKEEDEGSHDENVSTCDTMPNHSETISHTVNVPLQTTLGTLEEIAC", "experimental": "(§1) To investigate the species selectivity of ASC06-IgG1 affinity-matured antibodies, plasmids encoding fusion proteins of eYFP with […] homologs of ASIC1a were constructed. These plasmids included those encoding human ASIC1a (hASIC1a-eYFP), mouse ASIC1a (mASIC1a-eYFP), and rat ASIC1a (rASIC1a-eYFP). CHO-K1 cells were transiently transfected with the ASIC1a-eYFP plasmids, and a fluorescence activated cell sorting (FACS)-based binding assay was carried out to determine binding to the homologs or isoforms of ASIC1a expressed on the cell surface. An isotype control was used as a negative control for binding (NC). ASC06-IgG1 was used as a positive control. Summarily, the CHO-K1 cells expressing the ASIC1a-eYFP (green) homologs were stained with the indicated antibody (red) and subjected to FACS.\n(§2) To examine the ASIC isotype selectivity of ASC06-IgG1 affinity-matured antibodies, plasmids encoding fusion proteins of eYFP with isoforms of […] were constructed. These plasmids included those encoding human ASIC1b (hASIC1b-eYFP), human ASIC2a (hASIC2a-eYFP), and human ASIC3a (hASIC3a-eYFP). CHO-K1 cells were transiently transfected with these plasmids and used in a FACS-based binding assay disclosed herein. Binding of ASC06-IgG1 to CHO-K1 cells expressing human ASIC1a-eYFP (hASIC1a-eYFP) was used as a positive control (data not shown and FIG. 2), and an isotype control was used as a negative control for binding (NC)."}, "[2]": {"target": "T2, rat ASIC1a-eYFP (rASIC1a-eYFP) on transiently transfected CHO-K1 cells (rat, UniProt P55926 1-526)", "T2 construct": "whole, on cells; not shown: eYFP fusion partner", "T2 sequence (looked up)": "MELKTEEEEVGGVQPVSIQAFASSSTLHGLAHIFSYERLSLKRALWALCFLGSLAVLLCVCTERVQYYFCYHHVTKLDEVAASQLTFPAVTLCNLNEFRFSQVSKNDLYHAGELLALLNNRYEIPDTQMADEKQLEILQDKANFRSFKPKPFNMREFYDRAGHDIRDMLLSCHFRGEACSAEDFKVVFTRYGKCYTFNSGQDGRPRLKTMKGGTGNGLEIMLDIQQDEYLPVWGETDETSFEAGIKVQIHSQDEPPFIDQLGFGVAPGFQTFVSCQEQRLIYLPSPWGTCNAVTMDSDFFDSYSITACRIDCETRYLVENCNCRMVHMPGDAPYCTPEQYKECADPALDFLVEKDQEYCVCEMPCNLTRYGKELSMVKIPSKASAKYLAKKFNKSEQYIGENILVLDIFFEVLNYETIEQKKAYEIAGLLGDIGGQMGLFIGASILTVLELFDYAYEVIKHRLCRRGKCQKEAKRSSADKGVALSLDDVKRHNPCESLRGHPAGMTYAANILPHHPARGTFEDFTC", "experimental": "as §1, §2"}, "[3]": {"target": "T3, mouse ASIC1a-eYFP (mASIC1a-eYFP) on transiently transfected CHO-K1 cells (mouse, UniProt Q6NXK8 1-526)", "T3 construct": "whole, on cells; not shown: eYFP fusion partner", "T3 sequence (looked up)": "T2 sequence (looked up) with S476N", "experimental": "as §1, §2"}, "[4]": {"target": "T4, human ASIC3a-eYFP (hASIC3a-eYFP) on transiently transfected CHO-K1 cells (human, UniProt Q9UHC3 1-531)", "T4 construct": "whole, on cells; not shown: eYFP fusion partner", "T4 sequence (looked up)": "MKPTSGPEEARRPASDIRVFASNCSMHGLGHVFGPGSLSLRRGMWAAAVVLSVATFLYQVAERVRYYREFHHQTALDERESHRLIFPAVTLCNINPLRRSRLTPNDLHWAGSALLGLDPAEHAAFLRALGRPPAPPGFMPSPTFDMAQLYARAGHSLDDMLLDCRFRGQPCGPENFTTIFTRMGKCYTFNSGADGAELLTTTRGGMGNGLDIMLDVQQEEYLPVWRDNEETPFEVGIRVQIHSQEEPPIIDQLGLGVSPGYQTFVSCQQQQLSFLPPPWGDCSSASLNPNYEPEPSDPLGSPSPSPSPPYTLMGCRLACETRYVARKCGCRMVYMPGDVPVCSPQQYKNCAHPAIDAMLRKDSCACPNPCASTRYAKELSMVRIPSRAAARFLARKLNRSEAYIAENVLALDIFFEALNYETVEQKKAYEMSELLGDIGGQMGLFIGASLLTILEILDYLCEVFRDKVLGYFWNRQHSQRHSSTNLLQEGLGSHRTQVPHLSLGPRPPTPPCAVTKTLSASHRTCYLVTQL", "experimental": "as §1, §2"}}, "note": "Positions count from the first letter of the chain named."}
{"binder": "B1", "values": [{"measurement": "binding result", "setting": "[1]", "value": "no binding"}, {"measurement": "binding result", "setting": "[2]", "value": "binds"}, {"measurement": "binding result", "setting": "[3]", "value": "binds"}, {"measurement": "binding result", "setting": "[4]", "value": "no binding"}]}
{"binder": "B2", "values": [{"measurement": "binding result", "setting": "[1]", "value": "no binding"}, {"measurement": "binding result", "setting": "[2]", "value": "binds"}, {"measurement": "binding result", "setting": "[3]", "value": "binds"}, {"measurement": "binding result", "setting": "[4]", "value": "no binding"}]}
{"binder": "B3", "values": [{"measurement": "binding result", "setting": "[1]", "value": "no binding"}, {"measurement": "binding result", "setting": "[2]", "value": "binds"}, {"measurement": "binding result", "setting": "[3]", "value": "binds"}, {"measurement": "binding result", "setting": "[4]", "value": "no binding"}]}
{"binder": "B4", "values": [{"measurement": "binding result", "setting": "[1]", "value": "no binding"}, {"measurement": "binding result", "setting": "[2]", "value": "binds"}, {"measurement": "binding result", "setting": "[3]", "value": "binds"}, {"measurement": "binding result", "setting": "[4]", "value": "no binding"}]}
{"binder": "B5", "values": [{"measurement": "binding result", "setting": "[1]", "value": "no binding"}, {"measurement": "binding result", "setting": "[2]", "value": "binds"}, {"measurement": "binding result", "setting": "[3]", "value": "binds"}, {"measurement": "binding result", "setting": "[4]", "value": "no binding"}]}
